From patent US20220298478A1 come the findings set out here.

This assay has as its target full length mesothelin (NM_005823) on target cells (human) (UniProt Q13421). The assay is described as follows: cell-based or functional assay.

full length mesothelin (NM_005823) on target cells (human), sequence (Q13421 other isoform, or with tags, fused parts or gaps limits assumed): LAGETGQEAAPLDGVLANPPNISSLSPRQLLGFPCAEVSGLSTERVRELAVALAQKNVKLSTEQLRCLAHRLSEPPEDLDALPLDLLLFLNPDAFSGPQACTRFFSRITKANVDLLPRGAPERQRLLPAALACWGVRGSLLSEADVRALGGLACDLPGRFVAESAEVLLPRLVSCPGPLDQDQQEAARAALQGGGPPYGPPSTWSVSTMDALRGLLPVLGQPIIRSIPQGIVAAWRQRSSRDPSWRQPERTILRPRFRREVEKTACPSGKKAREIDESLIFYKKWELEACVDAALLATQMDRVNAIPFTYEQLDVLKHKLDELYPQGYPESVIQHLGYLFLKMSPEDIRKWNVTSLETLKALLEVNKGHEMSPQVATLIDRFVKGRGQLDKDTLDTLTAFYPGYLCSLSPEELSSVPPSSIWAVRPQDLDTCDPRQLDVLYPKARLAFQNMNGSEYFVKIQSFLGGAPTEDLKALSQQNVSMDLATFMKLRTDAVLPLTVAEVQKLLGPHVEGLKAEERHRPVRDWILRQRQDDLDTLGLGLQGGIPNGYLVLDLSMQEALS

B1: SD1 CD3ε-TFP (protein, part only; not given: linker and CD3 epsilon subunit, part only)
chain, part: EVQLVESGGGLVQPGGSLRLSCAASGGDWSANFMYWYRQAPGKQRELVARISGRGVVDYVESVKGRFTISRDNSKNTLYLQMNSLRAEDTAVYYCAVASYWGQGTLVTVSS
Take B1: the tumor cell lysis (luciferase assay), E:T 1-to-1, patients 1, 2, 4 and 5 was 50%; the tumor cell lysis (luciferase assay), E:T 1-to-5, patients 4 and 5 is 50%; the tumor cell lysis (luciferase assay), E:T 5-to-1, patient 3 is 35%; the tumor cell lysis (luciferase assay), E:T 5-to-1, patients 1, 2, 4 and 5 was in the range of 75 to 97%.
